Paper PMC5061333

Target: ASC (UniProt Q9ULZ3)
Experiment: EMSA
Conditions: EMSA: 100 mM Tris, 500 mM NaCl, 10 mM DTT, pH 7, 15°C 30 min; 3-5 μg DNA, 0.2-0.65 μg recombinant protein or 5 μg nuclear extract; 6% native PAGE

Sequence of ASC (Q9ULZ3 whole entry): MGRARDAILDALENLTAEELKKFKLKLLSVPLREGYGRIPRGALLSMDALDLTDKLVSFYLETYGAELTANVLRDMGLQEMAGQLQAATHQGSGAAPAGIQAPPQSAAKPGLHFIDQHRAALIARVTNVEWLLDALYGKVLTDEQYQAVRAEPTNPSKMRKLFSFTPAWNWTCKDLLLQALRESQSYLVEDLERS

ATTTATATAGCTTCTCAGCCTCGAATGTGGAAATAGGTGACTCATTTGAGTGTTTTCTTTCTTTTTAGAGTCTACAGAACTTTGAAAGTATGTGTTATTTTTCATTAACTAAAACGAGGAAGTATTACATCGTTATTGGCAGGAAGCACACAATGTATTTGTCTTTCAAAGGATTTTTTTTTCTGTCTGCTGCATAAATTGACTCCATGAGAAACCTCATTTTTTTGCCAAAGTCAAATGACTGCTCTCATAGGTATCA (double strand) [MMP7 promoter P1]
binding: binds
